Measurements published in patent publication US20140004107A1 (published 2014).

Experiments:
[1] = target: T1, biotinylated human ST2-Fc (human, UniProt Q01638 19-331, biotinylated); assay: AlphaScreen, IL-33 mediated association of biotinylated human ST2-Fc with human AcP-FH, antibody at 12.5 ug/ml
T1 construct: also called ST2-Fc fusion protein; not shown: human antibody Fc domain
T1 sequence: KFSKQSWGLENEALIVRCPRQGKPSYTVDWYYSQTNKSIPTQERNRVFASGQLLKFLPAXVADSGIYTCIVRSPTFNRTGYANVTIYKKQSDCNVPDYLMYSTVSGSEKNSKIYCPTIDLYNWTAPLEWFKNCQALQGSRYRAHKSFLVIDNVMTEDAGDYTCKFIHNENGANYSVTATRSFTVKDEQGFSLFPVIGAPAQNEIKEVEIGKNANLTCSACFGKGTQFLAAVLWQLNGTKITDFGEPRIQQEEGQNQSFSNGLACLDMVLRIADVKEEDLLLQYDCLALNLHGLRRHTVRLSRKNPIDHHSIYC
Protocol: In the second assay, antibodies were evaluated for the ability to inhibit the IL-33 mediated association of ST2 with the co-receptor AcP. […] The ST2/AcP AlphaScreen was conducted in 8 ul reactions in a 384 well optiplate (Perkin Elmer). […] After the addition of all assay components the plates were incubated overnight in the dark at room temperature. The next day the plates were read on a 2103 Envision multilable reader (Perkin Elmer) using the same parameters as above for the first assay.

[2] = target: T2, human ST2 (SPR analyte) (human, UniProt Q01638 19-322); assay: SPR Biacore 3000, captured antibody, ST2 analyte, 25 C
T2 construct: The ST2 reagent injected in SPR; leader is 1-18; also called hu ST2
T2 sequence: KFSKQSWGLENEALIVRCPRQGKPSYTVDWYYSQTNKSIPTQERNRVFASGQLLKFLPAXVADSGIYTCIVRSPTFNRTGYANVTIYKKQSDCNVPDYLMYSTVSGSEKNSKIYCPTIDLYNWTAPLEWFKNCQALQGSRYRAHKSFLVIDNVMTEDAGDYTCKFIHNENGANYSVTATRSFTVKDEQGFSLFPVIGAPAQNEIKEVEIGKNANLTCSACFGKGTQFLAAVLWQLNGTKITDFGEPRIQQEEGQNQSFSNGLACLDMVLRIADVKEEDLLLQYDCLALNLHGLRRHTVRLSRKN

[3] = target: T3, cynomolgus monkey ST2 (SPR analyte) (cynomolgus monkey, UniProt Q01638 19-322 (human entry)); assay: as above
T3 construct: The cyno ST2 reagent injected in SPR; leader is 1-18; also called cy ST2
T3 chain: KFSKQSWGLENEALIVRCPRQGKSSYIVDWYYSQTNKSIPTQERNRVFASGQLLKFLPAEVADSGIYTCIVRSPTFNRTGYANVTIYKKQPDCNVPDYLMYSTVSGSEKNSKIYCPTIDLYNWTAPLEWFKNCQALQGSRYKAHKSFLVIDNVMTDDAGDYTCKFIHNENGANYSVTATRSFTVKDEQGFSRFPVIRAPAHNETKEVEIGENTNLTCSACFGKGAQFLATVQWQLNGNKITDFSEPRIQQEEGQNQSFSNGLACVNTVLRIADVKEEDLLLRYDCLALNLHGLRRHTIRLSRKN

[4] = target: T4, soluble human ST2-FLAG His (human, UniProt Q01638 19-322, limits assumed); assay: AlphaScreen, biotinylated human IL-33 with human ST2-FH, antibody at 12.5 ug/ml
T4 construct: also called human ST2-FH; 6xhistidine tagged human ST2; not shown: FLAG and 6x histidine tags
T4 sequence: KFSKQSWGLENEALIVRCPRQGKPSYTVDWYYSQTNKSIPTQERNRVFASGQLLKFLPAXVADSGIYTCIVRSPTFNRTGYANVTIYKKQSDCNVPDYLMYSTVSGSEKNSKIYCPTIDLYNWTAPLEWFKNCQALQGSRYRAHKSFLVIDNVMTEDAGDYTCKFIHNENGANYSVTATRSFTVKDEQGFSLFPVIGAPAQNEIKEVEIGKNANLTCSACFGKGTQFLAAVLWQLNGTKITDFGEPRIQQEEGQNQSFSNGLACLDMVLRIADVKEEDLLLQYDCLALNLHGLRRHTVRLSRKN

[5] = target: T5, human ST2 on human primary cells (human, UniProt Q01638 19-556); assay: cell-based or functional assay
T5 sequence: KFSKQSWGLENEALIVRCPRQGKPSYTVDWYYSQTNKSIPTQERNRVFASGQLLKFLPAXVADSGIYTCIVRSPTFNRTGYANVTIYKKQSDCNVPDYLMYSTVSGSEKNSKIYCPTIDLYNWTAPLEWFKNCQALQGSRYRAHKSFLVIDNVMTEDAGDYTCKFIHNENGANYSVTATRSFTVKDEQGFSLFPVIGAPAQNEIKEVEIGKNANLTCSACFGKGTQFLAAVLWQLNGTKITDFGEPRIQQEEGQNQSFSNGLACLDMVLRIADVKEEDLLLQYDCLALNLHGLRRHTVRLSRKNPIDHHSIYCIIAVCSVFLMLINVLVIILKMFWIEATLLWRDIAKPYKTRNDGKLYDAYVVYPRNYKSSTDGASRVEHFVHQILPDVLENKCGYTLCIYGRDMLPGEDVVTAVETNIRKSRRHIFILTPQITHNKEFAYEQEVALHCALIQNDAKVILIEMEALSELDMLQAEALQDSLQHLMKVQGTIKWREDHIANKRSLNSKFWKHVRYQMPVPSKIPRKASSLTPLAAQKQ

[6] = target: T2, human ST2 (SPR analyte); assay: SPR Biacore 4000, kd at pH 5.5 against kd at pH 7.4
Protocol: (§1) The association (5 min) rates at pH 7.4 and dissociation (10 min) rates at pH 5.5 and 7.4 were monitored at a flow rate of 30 uL/min. The reference subtracted data was fit to a 1:1 model in Scrubber.

[7] = target: T6, cynomolgus monkey ST2 on cynomolgus CD4+ T cells (cynomolgus monkey, UniProt Q01638 19-556 (human entry)); assay: cell-based or functional assay
T6 chain: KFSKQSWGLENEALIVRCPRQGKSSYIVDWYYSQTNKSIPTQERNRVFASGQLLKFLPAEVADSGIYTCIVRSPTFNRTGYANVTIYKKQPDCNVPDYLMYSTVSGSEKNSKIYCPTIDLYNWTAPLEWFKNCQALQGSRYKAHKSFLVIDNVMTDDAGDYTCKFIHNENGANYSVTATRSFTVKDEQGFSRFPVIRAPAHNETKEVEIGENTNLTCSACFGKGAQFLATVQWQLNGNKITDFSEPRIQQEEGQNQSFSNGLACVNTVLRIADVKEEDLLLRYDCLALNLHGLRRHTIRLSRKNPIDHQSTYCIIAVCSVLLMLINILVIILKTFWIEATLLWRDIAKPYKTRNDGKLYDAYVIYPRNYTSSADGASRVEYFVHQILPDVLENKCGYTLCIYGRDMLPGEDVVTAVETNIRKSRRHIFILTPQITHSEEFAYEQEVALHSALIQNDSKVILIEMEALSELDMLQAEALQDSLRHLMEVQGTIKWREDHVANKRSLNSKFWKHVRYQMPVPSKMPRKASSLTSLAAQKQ

[8] = target: T2, human ST2 (SPR analyte); assay: SPR Biacore 4000, association at pH 7.4, dissociation at pH 7.4 (estimated kd)
Protocol: as §1

[9] = target: T2, human ST2 (SPR analyte); assay: SPR Biacore 4000, association at pH 7.4, dissociation at pH 5.5 (estimated kd)
Protocol: as §1

[10] = target: T5, human ST2 on human primary cells; assay: cell-based or functional assay; remark: listed apart in the source

Row | Binder | % inhib ST2-AcP AS 12.5 ug/ml [1] [%] | Kd [2] [nM] | koff [2] [s⁻¹] | kon [2] [M⁻¹ s⁻¹] | Kd [3] [nM] | koff [3] [s⁻¹] | kon [3] [M⁻¹ s⁻¹] | % inhib ST2-IL33 AS 12.5 ug/ml [4] [%] | IC-50, human eosinophil IL-8 release assay (IL-33 and IL-3 stimulation) [5] [pM] | pH 5.5/pH 7.4 koff fold change [6] [fold] | IC-50, cynomolgus monkey CD4+ T cell IFNγ release assay (IL-33, IL-2 and IL-12p70 stimulation) [7] [pM] | koff [8] [s⁻¹] | koff [9] [s⁻¹] | IC50 of inhibition of human IL-33-induced IL-5 production from human CD4+ T cells [10] [nM]
1 | Ab4 (antibody, human IgG2, kappa, V domains shown, fully human anti-ST2 antibody) VH: QVQLVQSGAEVKKPGASVKVSCEVSGFILTELSVNWVRQAPGKGLEWMGGFDPEDGKTIYAQKFQGRVTLTEDTSTDTAYMELSSLRSEDTAVYYCATWWDFHFDFWGQGTLVTVSS VL: DFVMTQTPLSLSVTPGQPASISCKSSQSLLHSNGKTYLYWFLQKPGQPPQLLIYEVSNRFSGVPDRFSGSGSGTDFTLKISRVEAEDVGVYYCMQSIQLPLTFGGGTKVEIKR | 77.8 | 0.301 | 0.000706 | 2.35e+06 | 0.516 | 0.00129 | 2.5e+06 | 98.4 | 14.1 | 16.9 | 4.03 | 0.000632 | 0.0107 | –
2 | Ab1 (antibody, human IgG2, kappa, V domains shown, fully human anti-ST2 antibody) VH: QVQLVQSGAEVKKPGASVKVSCKVSGYTLTELSIHWVRQAPGKGLEWMGGFGPEDGETIYAQKFQGRVTMTEDTSTDTAYMELSSLRSEDTAVYYCTTEDSSGLFDYWGQGTLVTVSS VL: not shown | 86.9 | 0.0777 | 0.000111 | 1.43e+06 | 0.117 | 0.000197 | 1.69e+06 | 98.1 | 51.5 | 88.1 | 15.8 | 0.000134 | 0.0118 | 10.7
3 | Ab6 (antibody, human IgG2, kappa, V domains shown, fully human anti-ST2 antibody) VH: EVQLVESGGGLVQPGGSLRLSCAASGFTFSTYDMHWVRQTTGKGLEWVSAIDLAGDTYYPGSVKGRFTISREDAKNSLYLQMNSLRAGDTAVYYCARGGDGYNYDYYGIDVWGQGTTVTVSS VL: DIVMTQSPLSLPVTPGEPASISCRSSQSLLHSDGYHYLDWYLQKPGQSPQLLIYLGSNRASGVPDRFSGSGSGTDFTLNISRVEAEDVGVYYCMQALQTLTFGGGTKVEIKR | 71.2 | – | – | – | – | – | – | 98.5 | 63 | – | 47.1 | – | – | –
4 | Ab7 (antibody, human IgG2, kappa, V domains shown, fully human anti-ST2 antibody) VH: EVQLVESGGGLVQPGGSLRLSCAASGFTFSTYDMHWVRQTTGKGLEWVSAIDLAGDTYYPGSVKGRFTISREDAKNSLYLQMNSLRAGDTAVYYCARGGDGYNYDYYGIDVWGQGTTVTVSS VL: DIVMTQSPLSLPVTPGEPASISCRSSQSLLHSDGYHYLDWYLQKPGQSPQLLIYLGSNRASGVPDRFSGSGSGTDFTLNISRVEAEDVGVYYCMQALQTLTFGGGTKVEIKR | 75.7 | – | – | – | – | – | – | 98.9 | 40.7 | – | 40 | – | – | –
5 | Ab5 (antibody, human IgG2, kappa, V domains shown) VH: EVQLVESGGGWVQPGGSLRLSCAASGFTFSSYDMYWVRQATGKGLEWVSGIDTVGDTYYPDSVKGRFTISRENAKNSVYLQMNTLRAGDTAVYYCVRGIYGDFYYYGLDVWGHGTTVTVSS VL: DIVMTQSPLSLPVTPGEPASISCRSSQSLLYSDGNNYLDWYLQKPGQSPHLLIYLGSNRASGVPDRFSGSGSGTDFTLKISRVEADDVGVYYCMQALQTLTFGGGTKVEIKR | – | – | – | – | – | – | – | – | 73.3 | – | 12.9 | – | – | 64.5
6 | Ab3 (antibody, human IgG2, kappa, V domains shown, fully human anti-ST2 antibody) VH: EVQLVESGGGLVQPGGSLRLSCAASGFTFSTYDMHWIRQAPGKNLEWVSAIDLAGDTYYPGSVKGRFTISREDAKNSLYLQMNSLRAGDTAVYYCARGGDGYNYDYYGIDVWGQGTTVTVSS VL: DIVMTQSPLSLPVTPGEPASISCRSSQSLLHSDGYHYLDWYLQKPGQSPQLLIYLGSNRASGVPDRFTGSGSGTDFTLKISRVEAEDVGVYYCMQALQILTFGGGTKVEIKR | 68.7 | 0.238 | 9.5e-05 | 400000 | 0.127 | 8.55e-05 | 674000 | 98.8 | 50.4 | 2.9 | 15.2 | 2.73e-05 | 7.91e-05 | –
